Assay [1] deals with T1, Sec3 (S. cerevisiae, UniProt P33332 1-1336).
T1 sequence: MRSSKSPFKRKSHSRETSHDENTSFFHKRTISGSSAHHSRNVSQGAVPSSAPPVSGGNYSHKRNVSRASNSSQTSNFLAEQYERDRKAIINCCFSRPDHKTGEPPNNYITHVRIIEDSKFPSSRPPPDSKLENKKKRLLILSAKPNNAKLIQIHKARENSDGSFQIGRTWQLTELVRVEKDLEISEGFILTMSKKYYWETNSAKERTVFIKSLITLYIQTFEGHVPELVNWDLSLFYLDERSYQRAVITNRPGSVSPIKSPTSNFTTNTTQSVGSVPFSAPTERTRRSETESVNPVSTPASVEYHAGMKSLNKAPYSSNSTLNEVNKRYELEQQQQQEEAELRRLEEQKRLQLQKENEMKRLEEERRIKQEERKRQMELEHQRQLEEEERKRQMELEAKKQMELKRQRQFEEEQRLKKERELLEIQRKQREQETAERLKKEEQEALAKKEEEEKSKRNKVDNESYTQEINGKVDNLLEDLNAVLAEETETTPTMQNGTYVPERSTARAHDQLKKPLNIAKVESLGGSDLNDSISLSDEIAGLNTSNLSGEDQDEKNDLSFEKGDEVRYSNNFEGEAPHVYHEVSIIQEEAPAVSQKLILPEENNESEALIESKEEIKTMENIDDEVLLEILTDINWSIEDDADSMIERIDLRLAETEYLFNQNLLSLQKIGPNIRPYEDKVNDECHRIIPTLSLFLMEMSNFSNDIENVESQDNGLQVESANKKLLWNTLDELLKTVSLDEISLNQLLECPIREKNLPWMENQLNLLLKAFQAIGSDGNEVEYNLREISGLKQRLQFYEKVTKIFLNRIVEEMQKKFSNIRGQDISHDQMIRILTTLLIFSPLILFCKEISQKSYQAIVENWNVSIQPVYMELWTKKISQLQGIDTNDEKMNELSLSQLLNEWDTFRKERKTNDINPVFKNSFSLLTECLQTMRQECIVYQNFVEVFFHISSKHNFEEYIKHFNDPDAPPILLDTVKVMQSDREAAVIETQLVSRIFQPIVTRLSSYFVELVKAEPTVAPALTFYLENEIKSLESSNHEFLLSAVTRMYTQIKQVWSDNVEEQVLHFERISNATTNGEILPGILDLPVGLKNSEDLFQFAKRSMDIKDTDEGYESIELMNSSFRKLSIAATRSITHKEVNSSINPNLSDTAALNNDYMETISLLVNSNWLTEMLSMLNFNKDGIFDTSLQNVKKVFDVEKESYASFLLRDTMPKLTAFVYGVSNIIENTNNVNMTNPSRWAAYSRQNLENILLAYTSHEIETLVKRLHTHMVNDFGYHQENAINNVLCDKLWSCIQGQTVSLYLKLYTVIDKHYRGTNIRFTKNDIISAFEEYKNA
In words: […].

Assay [2] concerns the target T2, Sec5 (S. cerevisiae, UniProt P89102 1-971).
T2 sequence: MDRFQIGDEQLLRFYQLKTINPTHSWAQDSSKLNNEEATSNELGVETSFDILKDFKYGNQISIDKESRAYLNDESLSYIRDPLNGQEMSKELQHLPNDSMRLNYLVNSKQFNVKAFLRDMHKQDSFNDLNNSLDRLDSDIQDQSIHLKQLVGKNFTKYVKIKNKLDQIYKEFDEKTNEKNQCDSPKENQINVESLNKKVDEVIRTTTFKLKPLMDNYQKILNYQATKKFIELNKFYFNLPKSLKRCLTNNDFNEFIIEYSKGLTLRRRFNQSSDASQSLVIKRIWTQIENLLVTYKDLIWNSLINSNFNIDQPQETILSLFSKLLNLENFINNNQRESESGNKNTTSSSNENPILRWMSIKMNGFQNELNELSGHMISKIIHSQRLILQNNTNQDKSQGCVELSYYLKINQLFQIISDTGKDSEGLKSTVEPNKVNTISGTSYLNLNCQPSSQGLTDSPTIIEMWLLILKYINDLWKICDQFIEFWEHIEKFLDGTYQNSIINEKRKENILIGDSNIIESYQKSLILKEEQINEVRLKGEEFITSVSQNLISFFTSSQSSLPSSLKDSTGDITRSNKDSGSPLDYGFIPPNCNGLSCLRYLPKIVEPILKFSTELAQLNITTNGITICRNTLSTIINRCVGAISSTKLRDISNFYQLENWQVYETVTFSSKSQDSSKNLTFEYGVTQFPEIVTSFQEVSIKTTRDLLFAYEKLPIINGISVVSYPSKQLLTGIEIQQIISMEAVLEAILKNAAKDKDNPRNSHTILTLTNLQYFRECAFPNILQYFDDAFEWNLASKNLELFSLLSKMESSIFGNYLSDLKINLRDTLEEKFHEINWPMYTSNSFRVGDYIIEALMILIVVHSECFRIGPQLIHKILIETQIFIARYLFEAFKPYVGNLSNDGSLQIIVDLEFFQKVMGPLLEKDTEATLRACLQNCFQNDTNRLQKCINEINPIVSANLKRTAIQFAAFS
Nature of the assay: […].

The text below walks through data of publication PMC5971111 (Nature structural & molecular biology, 2018).

B1: Sec6 (natural protein)
chain: MSSDPLQQVCDLIKGDLSLERVRDIKEQLLKEKSVVEYQLNKESDKYYGEVEESLKLLNLSKNSVTSIKQQINEVNKLGNDNRFAINRYDILFRATKLYETVNTTSSIYDRIYNFVALMEHIERLLVAELAEDALETGCPHLLEIHFLLTSARDFQEQVVVMAKEATEDAQRTVMKLFSRLSGIISKFDKLLDGLTYDIVEMARAEQISLAIRLFKIYDLEEREDLRIEAIRNIIKKKEIEIEKSSIKKLPNSKNTARLQDETPKVIEYPTNKGLYQEIMSGTISTRTAPRGYKHFLINGINNSISEMFGEMREKYVGDQKFDVLDNMDWIFNELIIVKEHIANCCPPHWNIFEVYFDQYYKELHSLITDLVESEPETIIILDILAFDKTFQDTLKQDFGFTKSEVKSVIGDKEKETLFKDYLNLIVVKMTEWIGNLEKAEFDVFLERSTPPHSDSDGLLFLDGTKTCFQMFTQQVEVAAGTNQAKILVGVVERFSDLLTKRQKNWISKISEEIKKQINYNHKYDIDPESITPEDECPGGLVEYLIAVSNDQMKAADYAVAISSKYGKLVSKVYEKQITNHLEGTLDGFAEVAQCSSLGLITLMFDDLRKPYQEIFSKTWYMGSQAQQIADTLDEYLLDIKPQMNSVLFVNFIDNVIGETIIKFLTALSFEHSFKNKNNKFLEAMKRDFEIFYQLFVKVLDGNESKDTLITQNFTVMEFFMDLSCEPIDSILDIWQKYLEVYWDSRIDLLVGILKCRKDVSSSERKKIVQQATEMLHEYRRNMEANGVDREPTLMRRFVLEFEKQ
Regarding B1, the binding result in assay [1] and in assay [2] was “binds” each time.
